The source of these data is the Human Domainome abundance scans (Beltran et al. 2025).

± gives the uncertainty stated by the source.

The data set can be described thus: abundance fitness (aPCA) (normalised: wild type 0, dead -1); higher = more abundant; growth selection in yeast, the domain comes from the species named. The settings on record: Homo sapiens.
For the substance “Scaffold attachment factor B1 R29F, Q15424”, the abundance fitness is -0.03 ± 0.06.
As for “Scaffold attachment factor B1 R29G, Q15424”, the abundance fitness was -0.18 ± 0.049.
With “Scaffold attachment factor B1 R29H, Q15424”, the abundance fitness was -0.262 ± 0.088.
The same measure for “Scaffold attachment factor B1 R29I, Q15424”: -0.019 ± 0.062; for “Scaffold attachment factor B1 R29K, Q15424”: -0.086 ± 0.083.
For “Scaffold attachment factor B1 R29L, Q15424”, the abundance fitness is -0.134 ± 0.048.
“Scaffold attachment factor B1 R29M, Q15424” gave an abundance fitness of 0.03 ± 0.077.
On to “Scaffold attachment factor B1 R29N, Q15424”, for which the abundance fitness is -0.408 ± 0.1.
For the substance “Scaffold attachment factor B1 R29P, Q15424”, the abundance fitness was -0.364 ± 0.063.
For the substance “Scaffold attachment factor B1 R29Q, Q15424”, the abundance fitness was -0.222 ± 0.089.
“Scaffold attachment factor B1 R29S, Q15424” showed an abundance fitness of -0.189 ± 0.063.
The same measure for “Scaffold attachment factor B1 R29T, Q15424”: -0.141 ± 0.062; for “Scaffold attachment factor B1 R29V, Q15424”: -0.08 ± 0.059; for “Scaffold attachment factor B1 R29Y, Q15424”: -0.056 ± 0.076.
The same measure for “Scaffold attachment factor B1 R30A, Q15424”: -0.289 ± 0.066.
With “Scaffold attachment factor B1 R30C, Q15424”, the abundance fitness is -0.409 ± 0.1.
“Scaffold attachment factor B1 R30D, Q15424” returned an abundance fitness of -0.384 ± 0.092.
Substance “Scaffold attachment factor B1 R30E, Q15424” yielded an abundance fitness of -0.252 ± 0.06.
The same measure for “Scaffold attachment factor B1 R30G, Q15424”: -0.31 ± 0.061.
The same measure for “Scaffold attachment factor B1 R30H, Q15424”: -0.16 ± 0.063; for “Scaffold attachment factor B1 R30I, Q15424”: -0.33 ± 0.073.
For “Scaffold attachment factor B1 R30K, Q15424”, the abundance fitness was -0.037 ± 0.066.
Substance “Scaffold attachment factor B1 R30L, Q15424” came in with an abundance fitness of -0.218 ± 0.051.
Substance “Scaffold attachment factor B1 R30M, Q15424” registered an abundance fitness of -0.206 ± 0.077.
As for “Scaffold attachment factor B1 R30N, Q15424”, the abundance fitness was -0.411 ± 0.1.
The substance “Scaffold attachment factor B1 R30P, Q15424” displayed an abundance fitness of -0.545 ± 0.094.
The same measure for “Scaffold attachment factor B1 R30Q, Q15424”: -0.25 ± 0.082; for “Scaffold attachment factor B1 R30S, Q15424”: -0.133 ± 0.062; for “Scaffold attachment factor B1 R30V, Q15424”: -0.493 ± 0.052.
“Scaffold attachment factor B1 R30W, Q15424” registered an abundance fitness of -0.444 ± 0.053.
The substance “Scaffold attachment factor B1 R30Y, Q15424” registered an abundance fitness of -0.383 ± 0.086.
As to “Scaffold attachment factor B1 R35A, Q15424”, the abundance fitness is -0.112 ± 0.059.
With “Scaffold attachment factor B1 R35C, Q15424”, the abundance fitness was -0.4 ± 0.073.
For “Scaffold attachment factor B1 R35D, Q15424”, the abundance fitness was -0.12 ± 0.08.
As to “Scaffold attachment factor B1 R35E, Q15424”, the abundance fitness was -0.195 ± 0.083.
The same measure for “Scaffold attachment factor B1 R35F, Q15424”: -0.59 ± 0.082.
For the substance “Scaffold attachment factor B1 R35H, Q15424”, the abundance fitness was -0.475 ± 0.089.
As for “Scaffold attachment factor B1 R35I, Q15424”, the abundance fitness was -0.556 ± 0.08.
Then “Scaffold attachment factor B1 R35K, Q15424”, with -0.217 ± 0.083; and “Scaffold attachment factor B1 R35L, Q15424”, with -0.316 ± 0.063; and “Scaffold attachment factor B1 R35M, Q15424”, with -0.147 ± 0.072.
Turning to “Scaffold attachment factor B1 R35P, Q15424”, the abundance fitness is -0.288 ± 0.081.
“Scaffold attachment factor B1 R35Q, Q15424” yielded an abundance fitness of -0.136 ± 0.077.
In turn, “Scaffold attachment factor B1 R35S, Q15424” came in with an abundance fitness of -0.136 ± 0.068.
The same measure for “Scaffold attachment factor B1 R35T, Q15424”: 0.014 ± 0.064; for “Scaffold attachment factor B1 R35V, Q15424”: -0.28 ± 0.054.
Substance “Scaffold attachment factor B1 R35W, Q15424” returned an abundance fitness of -0.645 ± 0.079.
With “Scaffold attachment factor B1 R40A, Q15424”, the abundance fitness was -0.272 ± 0.065.
With “Scaffold attachment factor B1 R40C, Q15424”, the abundance fitness is -0.642 ± 0.085.
As for “Scaffold attachment factor B1 R40D, Q15424”, the abundance fitness is -0.642 ± 0.096.
The substance “Scaffold attachment factor B1 R40F, Q15424” came in with an abundance fitness of -0.822 ± 0.08.
“Scaffold attachment factor B1 R40G, Q15424”: the abundance fitness is -0.732 ± 0.056.
“Scaffold attachment factor B1 R40I, Q15424” came in with an abundance fitness of -0.179 ± 0.07.
Take “Scaffold attachment factor B1 R40K, Q15424”: the abundance fitness was -0.416 ± 0.079.
“Scaffold attachment factor B1 R40L, Q15424” returned an abundance fitness of -0.219 ± 0.055.
In the case of “Scaffold attachment factor B1 R40M, Q15424”, the abundance fitness is -0.329 ± 0.075.
“Scaffold attachment factor B1 R40N, Q15424”: the abundance fitness is -0.786 ± 0.12.
Regarding “Scaffold attachment factor B1 R40P, Q15424”, the abundance fitness is -0.763 ± 0.074.
Regarding “Scaffold attachment factor B1 R40Q, Q15424”, the abundance fitness was -0.152 ± 0.06.
The same measure for “Scaffold attachment factor B1 R40S, Q15424”: -0.353 ± 0.062.
On to “Scaffold attachment factor B1 R40T, Q15424”, for which the abundance fitness is -0.319 ± 0.073.
“Scaffold attachment factor B1 R40V, Q15424” yielded an abundance fitness of -0.123 ± 0.067.
The same measure for “Scaffold attachment factor B1 R40Y, Q15424”: -0.549 ± 0.077.
Regarding “Scaffold attachment factor B1 R44A, Q15424”, the abundance fitness is -0.029 ± 0.061.
As for “Scaffold attachment factor B1 R44D, Q15424”, the abundance fitness was -0.156 ± 0.1.
The substance “Scaffold attachment factor B1 R44E, Q15424” registered an abundance fitness of -0.121 ± 0.091.
As to “Scaffold attachment factor B1 R44F, Q15424”, the abundance fitness was -0.27 ± 0.081.
The substance “Scaffold attachment factor B1 R44G, Q15424” showed an abundance fitness of -0.096 ± 0.064.
The same measure for “Scaffold attachment factor B1 R44H, Q15424”: -0.202 ± 0.072; for “Scaffold attachment factor B1 R44I, Q15424”: -0.13 ± 0.071; for “Scaffold attachment factor B1 R44L, Q15424”: -0.107 ± 0.053.
Substance “Scaffold attachment factor B1 R44P, Q15424” registered an abundance fitness of -0.715 ± 0.075.
“Scaffold attachment factor B1 R44Q, Q15424” returned an abundance fitness of -0.074 ± 0.071.
For “Scaffold attachment factor B1 R44S, Q15424”, the abundance fitness is -0.096 ± 0.065.
In the case of “Scaffold attachment factor B1 R44T, Q15424”, the abundance fitness is -0.024 ± 0.062.
The same measure for “Scaffold attachment factor B1 R44V, Q15424”: -0.092 ± 0.054; for “Scaffold attachment factor B1 R46A, Q15424”: -0.745 ± 0.069; for “Scaffold attachment factor B1 R46C, Q15424”: -0.445 ± 0.1.
The substance “Scaffold attachment factor B1 R46D, Q15424” displayed an abundance fitness of -0.832 ± 0.071.
“Scaffold attachment factor B1 R46E, Q15424”: the abundance fitness is -0.954 ± 0.1.
As for “Scaffold attachment factor B1 R46F, Q15424”, the abundance fitness is -0.545 ± 0.069.
Then “Scaffold attachment factor B1 R46G, Q15424”, with -0.84 ± 0.053; and “Scaffold attachment factor B1 R46H, Q15424”, with -0.423 ± 0.12.
For the substance “Scaffold attachment factor B1 R46I, Q15424”, the abundance fitness was -0.642 ± 0.072.
For “Scaffold attachment factor B1 R46K, Q15424”, the abundance fitness was -0.602 ± 0.11.
Then “Scaffold attachment factor B1 R46L, Q15424”, with -0.491 ± 0.063; and “Scaffold attachment factor B1 R46M, Q15424”, with -0.384 ± 0.1; and “Scaffold attachment factor B1 R46N, Q15424”, with -0.819 ± 0.15.
With “Scaffold attachment factor B1 R46P, Q15424”, the abundance fitness was -0.937 ± 0.12.
In turn, “Scaffold attachment factor B1 R46Q, Q15424” showed an abundance fitness of -0.734 ± 0.089.
Substance “Scaffold attachment factor B1 R46S, Q15424” had an abundance fitness of -0.763 ± 0.068.
“Scaffold attachment factor B1 R46T, Q15424” came in with an abundance fitness of -0.845 ± 0.11.
In the case of “Scaffold attachment factor B1 R46V, Q15424”, the abundance fitness is -0.797 ± 0.074.
The same measure for “Scaffold attachment factor B1 R46W, Q15424”: -0.8 ± 0.062; for “Scaffold attachment factor B1 R46Y, Q15424”: -0.463 ± 0.064; for “Scaffold attachment factor B1 R60A, Q15424”: -0.22 ± 0.054.
